Tests used:
[1] = molecular target: T1, CHMP3 full length (residues 1-222) (human, UniProt Q9Y3E7 1-222); experiment: cryo-EM structure
T1 sequence (looked up): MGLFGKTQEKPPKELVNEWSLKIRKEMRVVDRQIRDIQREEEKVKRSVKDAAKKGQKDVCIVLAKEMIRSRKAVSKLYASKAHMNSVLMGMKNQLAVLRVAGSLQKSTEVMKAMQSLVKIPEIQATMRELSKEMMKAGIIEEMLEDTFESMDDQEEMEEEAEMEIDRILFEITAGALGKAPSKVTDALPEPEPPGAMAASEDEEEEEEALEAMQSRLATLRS

[2] = molecular target: the molecule itself; experiment: cryo-EM structure
[3] = molecular target: T2, CHMP3_S75C (human, UniProt Q9Y3E7 9-183, S75C); experiment: cross-linking
T2 sequence (looked up): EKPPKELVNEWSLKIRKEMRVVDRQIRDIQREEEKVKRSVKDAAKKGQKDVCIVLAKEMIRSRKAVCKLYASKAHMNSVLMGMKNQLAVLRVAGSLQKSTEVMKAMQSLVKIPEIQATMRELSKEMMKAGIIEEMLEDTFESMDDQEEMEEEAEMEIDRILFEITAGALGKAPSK

[4] = molecular target: T3, CHMP3_V110C (human, UniProt Q9Y3E7 9-183, V110C); experiment: cross-linking
T3 sequence (looked up): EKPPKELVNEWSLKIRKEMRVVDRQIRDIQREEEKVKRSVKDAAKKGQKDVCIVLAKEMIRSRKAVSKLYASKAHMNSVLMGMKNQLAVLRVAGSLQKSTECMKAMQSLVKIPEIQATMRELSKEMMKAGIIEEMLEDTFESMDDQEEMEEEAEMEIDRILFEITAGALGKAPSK

[5] = molecular target: T4, CHMP3_K112A, K119A, K132A, K136A (human, UniProt Q9Y3E7 9-183, K112A | K119A | K132A | K136A); experiment: negative staining EM of polymer
T4 sequence (looked up): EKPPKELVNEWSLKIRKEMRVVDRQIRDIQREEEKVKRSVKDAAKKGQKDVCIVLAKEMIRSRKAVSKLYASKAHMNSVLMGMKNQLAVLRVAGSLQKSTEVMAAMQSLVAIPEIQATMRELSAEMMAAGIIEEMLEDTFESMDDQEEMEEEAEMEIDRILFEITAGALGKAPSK

[6] = molecular target: T1, CHMP3 full length (residues 1-222); experiment: negative staining EM of polymer

B1: CHMP2AΔC (C-terminally truncated CHMP2A, residues 1-161), MBP removed (domain or fragment, human, UniProt O43633 1-161, looked up)
chain: MDLLFGRRKTPEELLRQNQRALNRAMRELDRERQKLETQEKKIIADIKKMAKQGQMDAVRIMAKDLVRTRRYVRKFVLMRANIQAVSLKIQTLKSNNSMAQAMKGVTKAMGTMNRQLKLPQIQKIMMEFERQAEIMDMKEEMMNDAIDDAMGDEEDEEESD
B1: binds [1]; binds [2].

B2: CHMP2A_D57C (domain or fragment, human, UniProt O43633 9-161, looked up)
chain: KTPEELLRQNQRALNRAMRELDRERQKLETQEKKIIADIKKMAKQGQMCAVRIMAKDLVRTRRYVRKFVLMRANIQAVSLKIQTLKSNNSMAQAMKGVTKAMGTMNRQLKLPQIQKIMMEFERQAEIMDMKEEMMNDAIDDAMGDEEDEEESD
B2: binds [3].

B3: CHMP2A_N18C (domain or fragment, human, UniProt O43633 9-161, looked up)
chain: KTPEELLRQCQRALNRAMRELDRERQKLETQEKKIIADIKKMAKQGQMDAVRIMAKDLVRTRRYVRKFVLMRANIQAVSLKIQTLKSNNSMAQAMKGVTKAMGTMNRQLKLPQIQKIMMEFERQAEIMDMKEEMMNDAIDDAMGDEEDEEESD
B3: binds [4].

B4: CHMP2AΔC (residues 1-161) wild type, MBP fusion as used for tube formation without membrane coating (domain or fragment, human, UniProt O43633 1-161, looked up)
chain: MDLLFGRRKTPEELLRQNQRALNRAMRELDRERQKLETQEKKIIADIKKMAKQGQMDAVRIMAKDLVRTRRYVRKFVLMRANIQAVSLKIQTLKSNNSMAQAMKGVTKAMGTMNRQLKLPQIQKIMMEFERQAEIMDMKEEMMNDAIDDAMGDEEDEEESD
B4: binds [5]; binds [6].
